In US20240190985A1 (NEW YORK UNIVERSITY, published 2024):

T1: mouse CD99 (mouse, UniProt Q8VCN6 29-137, limits assumed)
T1 sequence (looked up): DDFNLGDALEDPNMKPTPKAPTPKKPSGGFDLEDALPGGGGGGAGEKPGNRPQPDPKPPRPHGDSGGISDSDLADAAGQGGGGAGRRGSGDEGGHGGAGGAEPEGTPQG

T2: recombinant CD99 extracellular domain (fusion partner not given) (human, UniProt P14209 23-122)
T2 construct: also called CD99 ECD; human CD99; not shown: N-terminal 6xHis tag, AviTag, TEV site and a fusion partner (SUMO or GFP)
T2 sequence: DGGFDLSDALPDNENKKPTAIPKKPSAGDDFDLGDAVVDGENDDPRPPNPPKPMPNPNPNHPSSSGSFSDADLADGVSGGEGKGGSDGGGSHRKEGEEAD

T3: CD99L2 extracellular domain (human, UniProt Q8TCZ2 26-185)
T3 construct: extracellular domain
T3 sequence (looked up): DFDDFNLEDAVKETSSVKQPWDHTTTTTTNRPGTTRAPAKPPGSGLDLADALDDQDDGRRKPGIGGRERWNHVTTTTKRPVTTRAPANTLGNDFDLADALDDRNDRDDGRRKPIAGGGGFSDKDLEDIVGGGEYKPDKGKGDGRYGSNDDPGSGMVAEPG

T4: Glycoprotein Xg extracellular domain (human, UniProt P55808 22-142)
T4 construct: extracellular domain
T4 sequence (looked up): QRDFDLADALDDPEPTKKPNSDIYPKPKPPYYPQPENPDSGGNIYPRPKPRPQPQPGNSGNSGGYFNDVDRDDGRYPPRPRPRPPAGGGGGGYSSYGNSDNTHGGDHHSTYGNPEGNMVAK

T5: CD99 peptide containing the 10A1 epitope, Ac-GENDDPRPPNPPKPM-amide (human)
T5 construct: Synthetic peptide (New England Peptide); also called residues 62-76
T5 peptide: Ac-GENDDPRPPNPPKPM-NH2

B1: 10A1 IgG-HCscFv (antibody)
heavy: QVQLQQSGPVLVKPSQTLSLTCAISGDSISSDTTAWSWIRRSPSRGLEWLGWTYYRSKWFNYYAVSVKGRVTINPDTSKNQFSLQLSSVTPEDTAVYYCARGNGNGGMDVWGQGTTVTVSSASTKGPSVFPLAPSSKSTSGGTAALGCLVKDYFPEPVTVSWNSGALTSGVHTFPAVLQSSGLYSLSSVVTVPSSSLGTQTYICNVNHKPSNTKVDKKVEPKSCDKTHTCPPCPAPEAAGGPSVFLFPPKPKDTLMISRTPEVTCVVVDVSHEDPEVKFNWYVDGVEVHNAKTKPREEQYNSTYRVVSVLTVLHQDWLNGKEYKCKVSNKALGAPIEKTISKAKGQPREPQVYTLPPSREEMTKNQVSLTCLVKGFYPSDIAVEWESNGQPENNYKTTPPVLDSDGSFFLYSKLTVDKSRWQQGNVFSCSVMHEALHNHYTQKSLSLSPGKSSGSSGSSSSSGSSSQVQLQQSGPVLVKPSQTLSLTCAISGDSISSDTTAWSWIRRSPSRGLEWLGWTYYRSKWFNYYAVSVKGRVTINPDTSKNQFSLQLSSVTPEDTAVYYCARGNGNGGMDVWGQGTTVTVSSGSSSSSSGSSGSSSSSYVLTQPASASVSPGQTARITCSGDALPKQYAYWYQQKPGQAPVLVIFKDSERPSGVPERFSGSSSGTTVTLTISGAQAEDEADYYCQSVDNSGFYQVFGGGTQLTVL
light: SYVLTQPASASVSPGQTARITCSGDALPKQYAYWYQQKPGQAPVLVIFKDSERPSGVPERFSGSSSGTTVTLTISGAQAEDEADYYCQSVDNSGFYQVFGGGTQLTVLRTVAAPSVFIFPPSDEQLKSGTASVVCLLNNFYPREAKVQWKVDNALQSGNSQESVTEQDSKDSTYSLSSTLTLSKADYEKHKVYACEVTHQGLSSPVTKSFNRGEC
notes: Human IgG1 LALA-PG with the 10A1 scFv appended by a linker to the C-terminus of each heavy chain; Valency of four; also called 10A1 HCscFv; 10A1 HC-scFv
B2: 10A1 IgG-E345R (antibody)
heavy: QVQLQQSGPVLVKPSQTLSLTCAISGDSISSDTTAWSWIRRSPSRGLEWLGWTYYRSKWFNYYAVSVKGRVTINPDTSKNQFSLQLSSVTPEDTAVYYCARGNGNGGMDVWGQGTTVTVSSASTKGPSVFPLAPSSKSTSGGTAALGCLVKDYFPEPVTVSWNSGALTSGVHTFPAVLQSSGLYSLSSVVTVPSSSLGTQTYICNVNHKPSNTKVDKKVEPKSCDKTHTCPPCPAPEAAGGPSVFLFPPKPKDTLMISRTPEVTCVVVDVSHEDPEVKFNWYVDGVEVHNAKTKPREEQYNSTYRVVSVLTVLHQDWLNGKEYKCKVSNKALGAPIEKTISKAKGQPRRPQVYTLPPSREEMTKNQVSLTCLVKGFYPSDIAVEWESNGQPENNYKTTPPVLDSDGSFFLYSKLTVDKSRWQQGNVFSCSVMHEALHNHYTQKSLSLSPGK
light: B1 light
notes: Valency of twelve as a hexamer; also called 10A1 E345R; 'inducible hexamer'
B3: clone 22 in the scFv-Fc format (Fc fusion)
chain: QVQLQQSGPGLVKPSQTLSLTCAISGDSVSSNSAAWNWIRQSPSRGLEWLGRTYYRSKWYNDYAVSVKSRITINPDTSKNQFSLQLNSVTPEDTAVYYCARGSYGSGLVWGQGTTVTVSSGSASAPTGILGSGGGGSGGGGSGGGGSNFMLTQPHSVSESPGKTVTISCTGSSGSIASNYVQWYQQRPGSAPTTVIYEDDQRPSGVPDRFSGSLDTSSNSASLTISGLRPEDEADYYCQSYDNKDNVVFGGGTKVTVLSGSSSSLEGCKPCICTVPEVSSVFIFPPKPKDVLTITLTPKVTCVVVDISKDDPEVQFSWFVDDVEVHTAQTQPREEQFNSTFRSVSELPIMHQDWLNGKEFKCRVNSAAFPAPIEKTISKTKGRPKAPQVYTIPPPKEQMAKDKVSLTCMITDFFPEDITVEWQWNGQPAENYKNTQPIMDTDGSYFVYSKLNVQKSNWEAGNTFTCSVLHEGLHNHHTEKSLSHSPGKGGGGLNDIFEAQKIEWHESRHHHHHH
notes: The format mimics the bivalent IgG architecture
B4: clone 30 in the scFv-Fc format (Fc fusion)
chain: EVQLLETGGGLVQPGGSLRLSCAASGFTFSSSAMHWVRQAPGKGLEWVAAISYDGSDTYYADSVKGRFTISRDNAKNTLYLQMNSLRDEDTAVYYCARDQVLGSGSLDYWGQGTLVTVSSGILGSGGGGSGGGGSGGGGSNFMLTQPHSVSESPGKTVTISCTRSSGSIGSYYVQWYQQRPGSPPTTVIYEDDKRPSGVPDRFSGSIDSSSNSASLTISGLKTEDEADYYCQSYDSSHVVFGGGTKLTVLSGSSSSLEGCKPCICTVPEVSSVFIFPPKPKDVLTITLTPKVTCVVVDISKDDPEVQFSWFVDDVEVHTAQTQPREEQFNSTFRSVSELPIMHQDWLNGKEFKCRVNSAAFPAPIEKTISKTKGRPKAPQVYTIPPPKEQMAKDKVSLTCMITDFFPEDITVEWQWNGQPAENYKNTQPIMDTDGSYFVYSKLNVQKSNWEAGNTFTCSVLHEGLHNHHTEKSLSHSPGKGGGGLNDIFEAQKIEWHESRHHHHHH
notes: as for B3
B5: 10A1 in the scFv-Fc format (Fc fusion)
chain: QVQLQQSGPVLVKPSQTLSLTCAISGDSISSDTTAWSWIRRSPSRGLEWLGWTYYRSKWFNYYAVSVKGRVTINPDTSKNQFSLQLSSVTPEDTAVYYCARGNGNGGMDVWGQGTTVTVSSGILSGSSSSGSSSSGSSSSGYVLTQPASASVSPGQTARITCSGDALPKQYAYWYQQKPGQAPVLVIFKDSERPSGVPERFSGSSSGTTVTLTISGAQAEDEADYYCQSVDNSGFYQVFGGGTQLTVLSGSSSSLEGCKPCICTVPEVSSVFIFPPKPKDVLTITLTPKVTCVVVDISKDDPEVQFSWFVDDVEVHTAQTQPREEQFNSTFRSVSELPIMHQDWLNGKEFKCRVNSAAFPAPIEKTISKTKGRPKAPQVYTIPPPKEQMAKDKVSLTCMITDFFPEDITVEWQWNGQPAENYKNTQPIMDTDGSYFVYSKLNVQKSNWEAGNTFTCSVLHEGLHNHHTEKSLSHSPGKGGGGLNDIFEAQKIEWHESRHHHHHH
notes: Bivalent; also called 10A1 scFv-Fc
B6: CD99 endogenously expressed on cells (Jurkat, KOPT-K1) (receptor)
chain: DGGFDLSDALPDNENKKPTAIPKKPSAGDDFDLGDAVVDGENDDPRPPNPPKPMPNPNPNHPSSSGSFSDADLADGVSGGEGKGGSDGGGSHRKEGEEADAPGVIPGIVGAVVVAVAGAISSFIAYQKKKLCFKENAEQGEVDMESHRNANAEPAVQRTLLEK
modifications: O-linked glycosylation (natural, on cells)
notes: also called endogenously expressed CD99; CD99 on cells
B7: 10A1 Fab (Fab, V domains shown)
VH: QVQLQQSGPVLVKPSQTLSLTCAISGDSISSDTTAWSWIRRSPSRGLEWLGWTYYRSKWFNYYAVSVKGRVTINPDTSKNQFSLQLSSVTPEDTAVYYCARGNGNGGMDVWGQGTTVTVSS
VL: SYVLTQPASASVSPGQTARITCSGDALPKQYAYWYQQKPGQAPVLVIFKDSERPSGVPERFSGSSSGTTVTLTISGAQAEDEADYYCQSVDNSGFYQVFGGGTQLTVL
notes: Fab made in E. coli by attaching VH and VL to CH1 and CL; also called 10A1 in the Fab format; monovalent 10A1

Columns and labels:
[1] = molecular target: B6; experiment: cell-based or functional assay
[2] = molecular target: B6; experiment: flow cytometry titration on KOPT-K1 cells, anti-Fab secondary antibody (FIG. 3B)
[3] = molecular target: B6; experiment: flow cytometry titration on KOPT-K1 cells; apparent KD (FIG. 3B)
mouse CD99 = molecular target: T1, mouse CD99; experiment: binding of scFv-Fc to CD99 from different species (FIG. 1C)
[4] = molecular target: T2, recombinant CD99 extracellular domain …; experiment: Western blot of recombinant CD99
[5] = molecular target: B6; experiment: flow cytometry on Jurkat cells (FIG. 1E)
[6] = molecular target: T3, CD99L2 extracellular domain; experiment: binding of scFv-Fc to immobilized homolog ECDs (FIG. 1B)
[7] = molecular target: T4, Glycoprotein Xg extracellular domain; experiment: as above
[8] = molecular target: B6; experiment: flow cytometry titration on Jurkat cells (FIG. 1G)
[9] = molecular target: T6, tetravalent SAV-10A1 Fab complex (A4 streptavidin with biotinylated 10A1 Fab) (UniProt P22629 37-163, limits assumed, biotin on the C-terminal AviTag of the Fab heavy chain); experiment: flow cytometry titration on KOPT-K1 cells (FIG. 4C)
T6 construct: also called tetravalent SAV-Fab complex; not shown: N-terminal 6xHis tag
T6 sequence (P22629 37-163 limits assumed, one chain of several): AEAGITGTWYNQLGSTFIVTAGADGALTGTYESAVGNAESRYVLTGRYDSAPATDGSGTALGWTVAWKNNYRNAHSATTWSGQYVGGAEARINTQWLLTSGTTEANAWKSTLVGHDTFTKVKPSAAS

[10] = molecular target: T5, CD99 peptide containing the 10A1 …; experiment: X-ray crystal structure of the complex, 3.10 Å

Binder: B1
- IC50 of cytotoxicity (Annexin V, KOPT-K1 cells, 18 hours) [1]: 82 nM Fv
- maximum fluorescence intensity relative to the bivalent and dodecavalent antibodies [2]: ~0.5 fold

Binder: B2
- fold higher KD than IgG-RGY, IgG-HCscFv and IgG [3]: ~3 fold
- IC50 of cytotoxicity (Annexin V, KOPT-K1 cells, 18 hours) [1]: 299 nM Fv

Binder: B3
- binding result (mouse CD99): no binding (tested: 1 µM Fv)
- binding result [4]: binds
- binding result [5]: binds
- binding result [6]: no binding (tested: 600 nM Fv)
- binding result [7]: no binding (tested: 600 nM Fv)

Binder: B4
- binding result (mouse CD99): no binding (tested: 1 µM Fv)
- binding result [4]: binds
- binding result [5]: binds
- binding result [6]: no binding (tested: 600 nM Fv)
- binding result [7]: no binding (tested: 600 nM Fv)

Binder: B5
- fold improvement of apparent KD over Clone 10 [8]: 14 fold

Binder: B6
- binding result [9]: binds

Binder: B7
- binding result [10]: binds
